According to patent US20050037969A1 (ARBOR VITA, published 2005):
Ends that are not written are not given here. * marks the point of attachment. Biotin = O=C1N[C@H]2[C@H](CS[C@H]2CCCCC(=O)*)N1

T1: GST-CASK PDZ domain fusion protein (Homo sapiens, UniProt O14936 486-575)
T1 construct: also called Homo sapiens CASK protein
T1 sequence: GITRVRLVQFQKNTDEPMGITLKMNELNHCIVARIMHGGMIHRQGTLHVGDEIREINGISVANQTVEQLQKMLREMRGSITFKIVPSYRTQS

T2: GST-TAX-IP43 PDZ domain fusion protein (human, UniProt Q13884 109-180)
T2 construct: also called TAX43; not shown: glutathione S-transferase encoded by vector pGEX-3X (Pharmacia)
T2 sequence: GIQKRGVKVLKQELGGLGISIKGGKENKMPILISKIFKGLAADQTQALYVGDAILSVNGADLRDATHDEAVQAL

T3: GST-TAX-IP2 PDZ domain fusion protein (human, UniProt O14908 129-216)
T3 construct: also called TAX-1P2; TAX2; not shown: glutathione S-transferase encoded by vector pGEX-3X (Pharmacia)
T3 chain: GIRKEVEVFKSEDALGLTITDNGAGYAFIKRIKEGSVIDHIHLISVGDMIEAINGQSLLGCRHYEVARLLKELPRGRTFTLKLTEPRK

T4: GST-PTN-4 PDZ domain fusion protein (Homo sapiens (Human), UniProt P29074 517-605)
T4 construct: also called protein-tyrosine phosphatase meg1; not shown: glutathione S-transferase encoded by vector pGEX-3X (Pharmacia)
T4 sequence: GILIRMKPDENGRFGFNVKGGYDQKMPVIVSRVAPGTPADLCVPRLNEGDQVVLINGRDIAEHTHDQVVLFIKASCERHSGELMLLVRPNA

T5: GST-MPP1 PDZ domain fusion protein (Homo sapiens (Human), UniProt Q00013 67-152)
T5 construct: also called p55; 55 Kd erythrocyte membrane protein; not shown: glutathione S-transferase encoded by vector pGEX-3X (Pharmacia)
T5 sequence: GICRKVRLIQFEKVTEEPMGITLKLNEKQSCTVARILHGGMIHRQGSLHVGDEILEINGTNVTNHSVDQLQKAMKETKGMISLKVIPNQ

T6: GST-prIL16 fusion protein (PDZ domains 1-2) (Homo sapiens (Human), UniProt Q14005 1111-1324)
T6 construct: also called putative interleukin 16 precursor; not shown: glutathione S-transferase encoded by vector pGEX-3X (Pharmacia)
T6 sequence: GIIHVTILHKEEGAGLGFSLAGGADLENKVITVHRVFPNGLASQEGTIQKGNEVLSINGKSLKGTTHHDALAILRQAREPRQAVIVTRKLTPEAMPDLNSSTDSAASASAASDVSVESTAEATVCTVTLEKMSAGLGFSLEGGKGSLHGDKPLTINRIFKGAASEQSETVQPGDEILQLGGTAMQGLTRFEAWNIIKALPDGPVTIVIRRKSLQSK

T7: GST-cytohesin binding protein PDZ domain fusion protein (Homo sapiens (Human), UniProt O60759 74-165)
T7 construct: also called CBP; not shown: glutathione S-transferase encoded by vector pGEX-3X (Pharmacia)
T7 sequence: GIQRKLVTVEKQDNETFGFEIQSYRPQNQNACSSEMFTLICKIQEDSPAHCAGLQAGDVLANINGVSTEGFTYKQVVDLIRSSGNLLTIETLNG

T8: GST-AF6 PDZ domain fusion protein (Homo sapiens (Human), UniProt P55196 1001-1093)
T8 construct: also called af-6 protein; not shown: glutathione S-transferase encoded by vector pGEX-3X (Pharmacia)
T8 sequence: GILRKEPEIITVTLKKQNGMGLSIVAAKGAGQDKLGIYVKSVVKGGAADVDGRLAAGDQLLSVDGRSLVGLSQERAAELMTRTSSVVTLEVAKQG

T9: GST-RGS12 PDZ domain fusion protein (human, UniProt O14924 17-85)
T9 construct: also called human regulator of G-protein signalling 12; not shown: glutathione S-transferase encoded by vector pGEX-3X (Pharmacia)
T9 sequence: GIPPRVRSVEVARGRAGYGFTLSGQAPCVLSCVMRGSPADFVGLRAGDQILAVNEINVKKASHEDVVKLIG

T10: GST-mouse syntenin fusion protein (Mus musculus, UniProt O08992 108-286)
T10 construct: also called Mus musculus Syntenin; not shown: glutathione S-transferase encoded by vector pGEX-3X (Pharmacia)
T10 chain: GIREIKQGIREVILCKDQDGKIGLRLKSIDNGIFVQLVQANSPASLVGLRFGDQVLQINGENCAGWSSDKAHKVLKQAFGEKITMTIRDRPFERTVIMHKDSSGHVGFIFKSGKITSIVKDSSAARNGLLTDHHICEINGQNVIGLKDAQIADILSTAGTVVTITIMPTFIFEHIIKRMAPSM

T11: X11β PDZ-GST fusion protein (Rattus norvegicus (Rat), UniProt O35431 560-745)
T11 construct: Order of GST and PDZ part and limits not seen in the excerpts
T11 chain: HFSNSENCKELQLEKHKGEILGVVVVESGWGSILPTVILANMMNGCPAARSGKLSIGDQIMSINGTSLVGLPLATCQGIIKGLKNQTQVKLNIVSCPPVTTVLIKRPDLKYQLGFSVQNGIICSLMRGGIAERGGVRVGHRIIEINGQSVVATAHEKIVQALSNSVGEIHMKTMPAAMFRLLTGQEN

T12: K858 PDZ-GST fusion protein (Homo sapiens (Human), UniProt Q8WWI1 1038-1131)
T12 construct: Order of GST and PDZ part and limits not seen in the excerpts
T12 sequence: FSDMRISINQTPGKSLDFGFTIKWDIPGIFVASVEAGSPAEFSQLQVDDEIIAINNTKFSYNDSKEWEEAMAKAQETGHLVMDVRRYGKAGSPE

T13: ConEn PDZ-GST fusion protein (Homo sapiens (Human), UniProt Q969H4 193-287)
T13 construct: The label ConEn is not explained in the excerpts
T13 sequence: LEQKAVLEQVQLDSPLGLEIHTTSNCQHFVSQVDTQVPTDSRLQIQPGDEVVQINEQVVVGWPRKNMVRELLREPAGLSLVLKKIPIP

B1: CDw137 (4-1BB ILA) C-terminal peptide AA21L (peptide)
peptide: Biotin-QEEDGCSCRFPEEEEGGCEL
modifications: cysteine pairing not given here
notes: Marked (S), sticky peptide with high background; also called CDw137 (4-1BB ILA) (S)
B2: Spectrin (beta) C-terminal peptide AA32L, biotinylated (peptide)
peptide: Biotin-SFPPCGHRENVPGQSLVSFV
notes: Marked (S), sticky; also called Spectrin beta (S); Spectrin β

These binders were tested against T1, GST-CASK PDZ domain fusion protein (assay: A/G assays).

binding result | Binder
no binding | B1
no binding | Biotin-QGDPALQDAGDSSRKEYFI (also called GC) [Glycophorin C C-terminal peptide AA37L, biotinylated]
no binding | B2
no binding | Biotin-AWDDSARAAGGQGLHVTAL [LPAP C-terminal peptide AA30L, biotinylated]

What follows are binders tested against T2, GST-TAX-IP43 PDZ domain fusion protein (assay: A/G assays).

binding result | Binder
no binding | B1
no binding | Biotin-QGDPALQDAGDSSRKEYFI (also called GC) [Glycophorin C C-terminal peptide AA37L, biotinylated]
no binding | Biotin-AWDDSARAAGGQGLHVTAL [LPAP C-terminal peptide AA30L, biotinylated]

Biological target: T3, GST-TAX-IP2 PDZ domain fusion protein
Assay: A/G assays

binding result | Binder
no binding | B1
no binding | Biotin-QGDPALQDAGDSSRKEYFI (also called GC) [Glycophorin C C-terminal peptide AA37L, biotinylated]
no binding | B2
no binding | Biotin-AWDDSARAAGGQGLHVTAL [LPAP C-terminal peptide AA30L, biotinylated]

These binders were tested against T4, GST-PTN-4 PDZ domain fusion protein (assay: A/G assays).

binding result | Binder
no binding | B1
no binding | Biotin-QGDPALQDAGDSSRKEYFI (also called GC) [Glycophorin C C-terminal peptide AA37L, biotinylated]
no binding | Biotin-AWDDSARAAGGQGLHVTAL [LPAP C-terminal peptide AA30L, biotinylated]

The binders below were run against T5, GST-MPP1 PDZ domain fusion protein (assay: A/G assays).

binding result | Binder
no binding | B1
no binding | Biotin-AWDDSARAAGGQGLHVTAL [LPAP C-terminal peptide AA30L, biotinylated]

Each binder was assayed against T6, GST-prIL16 fusion protein (PDZ domains …) (assay: A/G assays).

binding result | Binder
no binding | B1
no binding | Biotin-QGDPALQDAGDSSRKEYFI (also called GC) [Glycophorin C C-terminal peptide AA37L, biotinylated]
no binding | B2
no binding | Biotin-AWDDSARAAGGQGLHVTAL [LPAP C-terminal peptide AA30L, biotinylated]

These binders were tested against T7, GST-cytohesin binding protein PDZ … (assay: A/G assays).

binding result | Binder
no binding | B1
no binding | Biotin-QGDPALQDAGDSSRKEYFI (also called GC) [Glycophorin C C-terminal peptide AA37L, biotinylated]
no binding | Biotin-AWDDSARAAGGQGLHVTAL [LPAP C-terminal peptide AA30L, biotinylated]

What follows are binders tested against T8, GST-AF6 PDZ domain fusion protein (assay: A/G assays).

binding result | Binder
no binding | B1
no binding | Biotin-AWDDSARAAGGQGLHVTAL [LPAP C-terminal peptide AA30L, biotinylated]

Each binder was assayed against T9, GST-RGS12 PDZ domain fusion protein (assay: A/G assays).

binding result | Binder
no binding | B1
no binding | Biotin-QGDPALQDAGDSSRKEYFI (also called GC) [Glycophorin C C-terminal peptide AA37L, biotinylated]
no binding | B2
no binding | Biotin-AWDDSARAAGGQGLHVTAL [LPAP C-terminal peptide AA30L, biotinylated]

Biological target: T10, GST-mouse syntenin fusion protein
Assay: A/G assays

binding result | Binder
no binding | B1
no binding | Biotin-QGDPALQDAGDSSRKEYFI (also called GC) [Glycophorin C C-terminal peptide AA37L, biotinylated]
no binding | B2
no binding | Biotin-AWDDSARAAGGQGLHVTAL [LPAP C-terminal peptide AA30L, biotinylated]

Biological target: T11, X11β PDZ-GST fusion protein
Assay: A/G assays

binding result | Binder
no binding | B1
no binding | Biotin-QGDPALQDAGDSSRKEYFI (also called GC) [Glycophorin C C-terminal peptide AA37L, biotinylated]
no binding | B2
no binding | Biotin-AWDDSARAAGGQGLHVTAL [LPAP C-terminal peptide AA30L, biotinylated]

Each binder was assayed against T14, PICK1 PDZ-GST fusion protein (Bos taurus (Bovine), UniProt Q2T9M1 17-105) (assay: A/G assays).
T14 construct: Order of GST and PDZ part and limits not seen in the excerpts
T14 sequence (Q2T9M1 other isoform, or with tags, fused parts or gaps limits assumed): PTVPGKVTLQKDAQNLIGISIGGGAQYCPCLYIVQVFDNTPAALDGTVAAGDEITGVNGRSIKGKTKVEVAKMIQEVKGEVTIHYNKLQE

binding result | Binder
no binding | Biotin-QGDPALQDAGDSSRKEYFI (also called GC) [Glycophorin C C-terminal peptide AA37L, biotinylated]
no binding | B2
no binding | Biotin-AWDDSARAAGGQGLHVTAL [LPAP C-terminal peptide AA30L, biotinylated]

Each binder was assayed against T15, K316 PDZ-GST fusion protein (Homo sapiens (Human), UniProt Q14CM0 72-159) (assay: A/G assays).
T15 construct: Order of GST and PDZ part and limits not seen in the excerpts
T15 sequence (Q14CM0 72-159 limits assumed): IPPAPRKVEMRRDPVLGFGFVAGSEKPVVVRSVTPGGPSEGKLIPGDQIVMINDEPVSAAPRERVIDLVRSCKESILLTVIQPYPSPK

binding result | Binder
no binding | Biotin-QGDPALQDAGDSSRKEYFI (also called GC) [Glycophorin C C-terminal peptide AA37L, biotinylated]

What follows are binders tested against T12, K858 PDZ-GST fusion protein (assay: A/G assays).

binding result | Binder
no binding | B1
no binding | Biotin-QGDPALQDAGDSSRKEYFI (also called GC) [Glycophorin C C-terminal peptide AA37L, biotinylated]
no binding | B2
no binding | Biotin-AWDDSARAAGGQGLHVTAL [LPAP C-terminal peptide AA30L, biotinylated]

Each binder was assayed against T13, ConEn PDZ-GST fusion protein (assay: A/G assays).

binding result | Binder
no binding | Biotin-QGDPALQDAGDSSRKEYFI (also called GC) [Glycophorin C C-terminal peptide AA37L, biotinylated]
no binding | Biotin-AWDDSARAAGGQGLHVTAL [LPAP C-terminal peptide AA30L, biotinylated]
